This note sets out measurements from article PMC7617353, “Molecular basis of FIGNL1 in dissociating RAD51 from DNA and chromatin” (Science (New York, N.Y.), 2024).

The chains are these.
B2: FIGNL1ΔN(E501Q) (domain or fragment, human, UniProt Q6PIW4 287-674, looked up)
chain: KEDSSLPTFKTAKEQLWVDQQKKYHQPQRASGSSYGGVKKSLGASRSRGILGKFVPPIPKQDGGEQNGGMQCKPYGAGPTEPAHPVDERLKNLEPKMIELIMNEIMDHGPPVNWEDIAGVEFAKATIKEIVVWPMLRPDIFTGLRGPPKGILLFGPPGTGKTLIGKCIASQSGATFFSISASSLTSKWVGEGEKMVRALFAVARCQQPAVIFIDQIDSLLSQRGDGEHESSRRIKTEFLVQLDGATTSSEDRILVVGATNRPQEIDEAARRRLVKRLYIPLPEASARKQIVINLMSKEQCCLSEEEIEQIVQQSDAFSGADMTQLCREASLGPIRSLQTADIATITPDQVRPIAYIDFENAFRTVRPSVSPKDLELYENWNKTFGCGK
notes: Six copies in the cryo-EM hexamer with ATP.Mg2+ and RAD51; also called E501Q mutant; source: E. coli BL21(DE3), purified as the wild type (HisTrap, StrepTrap, SEC)
B3: RAD51 (natural protein, human, UniProt Q06609 1-339, looked up)
chain: MAMQMQLEANADTSVEEESFGPQPISRLEQCGINANDVKKLEEAGFHTVEAVAYAPKKELINIKGISEAKADKILAEAAKLVPMGFTTATEFHQRRSEIIQITTGSKELDKLLQGGIETGSITEMFGEFRTGKTQICHTLAVTCQLPIDRGGGEGKAMYIDTEGTFRPERLLAVAERYGLSGSDVLDNVAYARAFNTDHQTQLLYQASAMMVESRYALLIVDSATALYRTDYSGRGELSARQMHLARFLRMLLRLADEFGVAVVITNQVVAQVDGAAMFAADPKKPIGGNIIAHASTTRLYLRKGRGETRICKIYDSPCLPEAEAMFAINADGVGDAKD
modifications: cysteine reactive RED-MALEIMIDE label (only in the MST with labelled RAD51)
notes: RAD51, expressed without tags; PDB 8R64 holds only residues 2-13 of it; also called RAD51 recombinase

Data set [1] deals with T1, FIGNL1ΔN (human FIGNL1 residues 287-674) (human, UniProt Q6PIW4 287-674).
T1 construct: Monomer by SEC-MALLS after purification; hexamer with ATPγS by cryo-EM; source: E. coli BL21(DE3), purified (HisTrap, StrepTrap, SEC Superdex 200 increase)
T1 sequence (looked up): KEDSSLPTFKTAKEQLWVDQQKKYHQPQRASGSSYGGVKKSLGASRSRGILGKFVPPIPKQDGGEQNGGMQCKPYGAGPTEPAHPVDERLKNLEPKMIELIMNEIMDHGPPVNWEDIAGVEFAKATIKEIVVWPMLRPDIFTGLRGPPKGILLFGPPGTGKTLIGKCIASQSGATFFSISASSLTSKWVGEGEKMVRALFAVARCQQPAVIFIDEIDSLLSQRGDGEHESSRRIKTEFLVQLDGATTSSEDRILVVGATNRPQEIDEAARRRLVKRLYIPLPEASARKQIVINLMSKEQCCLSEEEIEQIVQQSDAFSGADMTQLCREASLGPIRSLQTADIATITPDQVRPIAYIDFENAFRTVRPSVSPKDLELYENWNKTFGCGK
Kind of data set: cryo-EM structure; 5µM FIGNL1ΔN with 1mM ATPγS and 5mM MgCl2, 15 minutes at 37°C in EM buffer; planar hexamer, 9.2Å map.

Data set [2] deals with T2, RAD51 (human, UniProt Q06609 1-339, cysteine reactive RED-MALEIMIDE label (only in the MST with labelled RAD51)).
T2 chain: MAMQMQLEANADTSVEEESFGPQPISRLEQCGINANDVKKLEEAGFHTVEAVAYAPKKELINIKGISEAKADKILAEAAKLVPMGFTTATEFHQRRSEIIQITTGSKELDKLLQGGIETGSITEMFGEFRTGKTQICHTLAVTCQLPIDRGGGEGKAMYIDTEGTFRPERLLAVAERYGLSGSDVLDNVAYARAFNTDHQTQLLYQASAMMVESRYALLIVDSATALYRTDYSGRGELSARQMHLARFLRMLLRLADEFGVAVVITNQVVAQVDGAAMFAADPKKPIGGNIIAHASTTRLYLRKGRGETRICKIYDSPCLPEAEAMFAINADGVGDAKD
Nature of the data set: MST.

The target of data set [3] is B3. Nature of the data set: cryo-EM structure; 10μM FIGNL1ΔN(E501Q) with 10μM RAD51, 1mM ATP, 5mM MgCl2, 20 mM Tris-HCl pH 8.0, 100 mM NaCl, 10 minutes at 37°C; whole complex ~8 Å, focused hexamer with RAD51 N-terminus 2.9 Å. The conditions noted are these: both partners purified.
Data set [4] concerns the molecule itself. The description is as above.
Data set [5] has as its target T3, FIGNL1ΔN pore loop 1 mutant (K473E,W474A) (human, UniProt Q6PIW4 287-674, K473E | W474A).
T3 sequence: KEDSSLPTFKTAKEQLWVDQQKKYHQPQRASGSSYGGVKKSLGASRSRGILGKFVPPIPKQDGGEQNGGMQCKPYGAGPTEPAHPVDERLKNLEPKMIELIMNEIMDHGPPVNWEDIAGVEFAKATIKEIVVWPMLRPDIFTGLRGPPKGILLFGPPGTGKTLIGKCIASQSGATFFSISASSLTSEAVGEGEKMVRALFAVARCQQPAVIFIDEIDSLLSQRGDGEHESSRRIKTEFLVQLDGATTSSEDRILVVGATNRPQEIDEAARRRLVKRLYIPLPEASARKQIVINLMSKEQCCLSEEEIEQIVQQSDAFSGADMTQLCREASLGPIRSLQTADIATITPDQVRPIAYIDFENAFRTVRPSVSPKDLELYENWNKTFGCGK
Nature of the data set: MST.

The target of data set [6] is T4, FIGNL1ΔN(E501Q) (human, UniProt Q6PIW4 287-674, E501Q).
T4 sequence: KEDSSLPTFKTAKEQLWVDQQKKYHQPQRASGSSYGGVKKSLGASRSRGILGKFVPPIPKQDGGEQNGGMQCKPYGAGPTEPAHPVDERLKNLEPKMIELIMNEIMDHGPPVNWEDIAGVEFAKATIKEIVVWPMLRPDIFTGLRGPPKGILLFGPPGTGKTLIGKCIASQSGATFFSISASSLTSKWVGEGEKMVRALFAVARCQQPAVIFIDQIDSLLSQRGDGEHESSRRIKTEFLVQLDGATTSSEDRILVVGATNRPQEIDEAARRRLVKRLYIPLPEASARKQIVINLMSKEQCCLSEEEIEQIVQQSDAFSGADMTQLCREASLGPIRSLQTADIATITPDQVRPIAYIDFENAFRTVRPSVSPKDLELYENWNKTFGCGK
Nature of the data set: MST.

The target of data set [7] is T5, FIGNL1ΔN with an N-terminal YBBR-tag, labelled (human, UniProt Q6PIW4 287-674, labelled as previously described (refs 59, 60)).
T5 chain: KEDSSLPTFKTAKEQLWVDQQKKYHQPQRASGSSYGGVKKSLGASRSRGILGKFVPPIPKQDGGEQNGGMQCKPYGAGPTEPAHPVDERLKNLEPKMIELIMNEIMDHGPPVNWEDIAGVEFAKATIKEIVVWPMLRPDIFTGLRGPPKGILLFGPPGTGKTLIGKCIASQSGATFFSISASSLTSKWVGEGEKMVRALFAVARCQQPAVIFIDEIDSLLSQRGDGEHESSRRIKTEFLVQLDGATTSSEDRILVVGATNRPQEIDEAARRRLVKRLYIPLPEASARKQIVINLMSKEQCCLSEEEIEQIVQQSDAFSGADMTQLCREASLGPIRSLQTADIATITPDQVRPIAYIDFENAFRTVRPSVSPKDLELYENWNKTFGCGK
Nature of the data set: MST.

The target in data set [8] is T1, FIGNL1ΔN (human FIGNL1 residues 287-674). Kind of data set: MST; 100nM RED-MALEIMIDE labelled RAD51 with a serial dilution of FIGNL1ΔN (and mutants); 20mM Tris pH 8.0, 100mM NaCl, 1mM ATP, 5mM MgCl2, 0.05% TWEEN-20; 25°C. The conditions noted are these: both partners purified.
For data set [9], the target named is T6, FIGNL1ΔN pore loop 1 mutant (K473E,W474A) (human, UniProt Q6PIW4 287-674, K473E | W474A).
T6 construct: also called PL mutant; source: E. coli BL21(DE3), purified as the wild type (HisTrap, StrepTrap, SEC)
T6 sequence (looked up): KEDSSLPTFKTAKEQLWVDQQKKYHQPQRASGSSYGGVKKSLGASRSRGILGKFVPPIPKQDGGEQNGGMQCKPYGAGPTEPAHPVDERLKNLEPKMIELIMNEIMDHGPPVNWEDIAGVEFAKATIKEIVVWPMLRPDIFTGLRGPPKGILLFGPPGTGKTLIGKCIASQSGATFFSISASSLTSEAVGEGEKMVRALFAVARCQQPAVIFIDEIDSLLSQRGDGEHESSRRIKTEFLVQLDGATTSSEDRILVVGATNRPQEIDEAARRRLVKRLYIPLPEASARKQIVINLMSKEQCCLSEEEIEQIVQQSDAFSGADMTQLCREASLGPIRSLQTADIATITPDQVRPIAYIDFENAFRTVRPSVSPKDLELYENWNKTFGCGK
The data set is described as above. Particulars: both partners purified.

Data set [10] concerns the target B2. The description is as above. Particulars: both partners purified.
Data set [11] addresses T7, FIGNL1ΔN with an N-terminal YBBR-tag, labelled (human, UniProt Q6PIW4 287-674, labelled as previously described (refs 59, 60)).
T7 sequence (looked up): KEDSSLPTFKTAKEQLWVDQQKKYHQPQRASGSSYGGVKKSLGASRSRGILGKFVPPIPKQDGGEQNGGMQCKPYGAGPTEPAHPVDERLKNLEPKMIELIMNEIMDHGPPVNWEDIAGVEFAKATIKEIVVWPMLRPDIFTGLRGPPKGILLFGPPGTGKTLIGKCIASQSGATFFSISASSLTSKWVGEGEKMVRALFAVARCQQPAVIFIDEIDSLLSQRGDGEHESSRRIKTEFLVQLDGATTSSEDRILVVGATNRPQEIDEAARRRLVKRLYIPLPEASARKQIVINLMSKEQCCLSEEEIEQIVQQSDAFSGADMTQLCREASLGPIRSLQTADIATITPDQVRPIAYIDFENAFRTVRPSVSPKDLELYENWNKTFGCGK
Kind of data set: MST; 100nM FIGNL1ΔN labelled at an N-terminal YBBR-tag with a serial dilution of RAD51 and RAD51ΔN; measured as in the labelled RAD51 experiments. The conditions noted are these: both partners purified.

B1: FIGNL1ΔN (human FIGNL1 residues 287-674) (domain or fragment)
chain: KEDSSLPTFKTAKEQLWVDQQKKYHQPQRASGSSYGGVKKSLGASRSRGILGKFVPPIPKQDGGEQNGGMQCKPYGAGPTEPAHPVDERLKNLEPKMIELIMNEIMDHGPPVNWEDIAGVEFAKATIKEIVVWPMLRPDIFTGLRGPPKGILLFGPPGTGKTLIGKCIASQSGATFFSISASSLTSKWVGEGEKMVRALFAVARCQQPAVIFIDEIDSLLSQRGDGEHESSRRIKTEFLVQLDGATTSSEDRILVVGATNRPQEIDEAARRRLVKRLYIPLPEASARKQIVINLMSKEQCCLSEEEIEQIVQQSDAFSGADMTQLCREASLGPIRSLQTADIATITPDQVRPIAYIDFENAFRTVRPSVSPKDLELYENWNKTFGCGK
In data set [1], B1 gave a stoichiometry N of 6. The molecule further came in with a Kd in the data set with RAD51 [2] of 328 nM.

Consider B2, for which the “stoichiometry N” value was 2 RAD51 monomers per FIGNL1 hexamer with RAD51 [3] and 6 in [4].

Take B3: the Kd came out at 340 nM in data set [5], 279 nM with FIGNL1ΔN(E501Q) [6] and 109 nM in data set [7]. Besides, the binding result (in data set [8]; in data set [9]; with FIGNL1ΔN(E501Q) [10]) was “binds” throughout.

B4: RAD51ΔN (RAD51 lacking the N-terminal 20 residues) (domain or fragment, human, UniProt Q06609 21-339, looked up)
chain: GPQPISRLEQCGINANDVKKLEEAGFHTVEAVAYAPKKELINIKGISEAKADKILAEAAKLVPMGFTTATEFHQRRSEIIQITTGSKELDKLLQGGIETGSITEMFGEFRTGKTQICHTLAVTCQLPIDRGGGEGKAMYIDTEGTFRPERLLAVAERYGLSGSDVLDNVAYARAFNTDHQTQLLYQASAMMVESRYALLIVDSATALYRTDYSGRGELSARQMHLARFLRMLLRLADEFGVAVVITNQVVAQVDGAAMFAADPKKPIGGNIIAHASTTRLYLRKGRGETRICKIYDSPCLPEAEAMFAINADGVGDAKD
notes: RAD51 lacking the N-terminal 20 residues; also called RAD51 with N-terminal 20 a.a. deleted
On to B4, for which the binding result in data set [11] is “binds”. This molecule showed a Kd in data set [7] of 315 nM.
